Data reported in the nanobody polyreactivity screen of Harvey et al. (2022).

Assay: yeast display, Sf9 membrane polyspecificity reagent, FACS + sequencing; frameworks hold sequencing errors
How it was run: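 Nanobodies came from a synthetic yeast display library in Saccharomyces cerevisiae BJ5465, induced with galactose for 36–48 hours and stained for 1 hour at 4 °C with 10% biotinylated, detergent-solubilized Sf9 membrane reagent. Cells were enriched on streptavidin microbeads and then FACS-sorted, with low and high (top ~1%) gates set on anti-HA fluorescence for expression and streptavidin fluorescence for reagent binding. Each polyreactivity label reflects the gate a clone came from. Genes were amplified by colony PCR, sequenced by MiSeq 2 × 250 and filtered by CDR length.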

For “QVQLVESGGGLVQAGGSLSISCAASGITLGHNAMGWYRQAPGKDRELVAAISWSGDRTFYADSVKGRFTISRDNAKNTVYLQMNSLKPEDTAVYYCNAEIGWHNEGRLSTYDYWGQGTQVTVSS”, the “polyreactivity (PSR sort gate)” value was “low polyreactivity”.

With “QVQLVESGGGLVQAGGSLRLICAASGRTFTGYTMGWYRQAPGKEREFVAAISSNGGRTYYADSVKGRFTISRDNAKNTVYLQMNSLKPEDTAVYYCAAPYTFWGQGTQVTVSS” the “polyreactivity (PSR sort gate)” value was “high polyreactivity”.

In the case of “QVQLVESGGGLVQAGGSLRLSCAASGRTFRVYAMGWYRQAPGKERELVAAISGSGGSTYYADSLKGRFTISRDNAKNTVYLQMNSLKPDDTAVYYCAARYFGPGWRDRDYNYWAQGTQVTVSS”, the “polyreactivity (PSR sort gate)” value was “high polyreactivity”.

With “QVQLVESGGGLVQAGGSLRLSCAASGLIFLQYGLGWYRQAPGKERALVAAITTRGGRTYYADSVKGRFTISRDNANNTVYLQMNSLKPEDTAVYYCAADSEQDNLRYYRWVWYYYWGQGTQVTVSS” the “polyreactivity (PSR sort gate)” value was “low polyreactivity”.

In the case of “QVQLVESGGGLVQAGGSLRLSCAASGRIFWQYAMGWYRQAPGKERELVAAISRSGGSTYYADSVKGRFTISRDNAKNTVYLQMKCLTPEDTAVYYCAARKASGVPGSAGRPEYYYWGQGTQVTVSS”, the “polyreactivity (PSR sort gate)” value was “high polyreactivity”.

With “QVQLVESGGGLVQAGGSLRLSCAASGGIFGPYAMGWYRQAPGKERELVATITRNGGSTRYADSVKGRFTISRDNAKNTVYLQMNSLKPEDTAVYYCAARGYLDMGYWGQGTQVTVSS” the “polyreactivity (PSR sort gate)” value was “high polyreactivity”.

With “QVQLVESGGGLVQAGGSLRLTCAASGSTFRHNAMGWYRQAPGKETELVAVITDGASTNYADSVKGRFTMSRDNAKNTVYLQLNSLKPEDTAVYYCAAYHRGYYTGREYYYWGQGTQVTVSS” the “polyreactivity (PSR sort gate)” value was “low polyreactivity”.

For “QVQLVESGGGLVQAGGSLRLSCAASGSTFRTYAKGWYRQAPGKERELVASITRRGGRTYYADSVKGRFTISRDNAKNTVYLQMYSLKPEDTAVYYCAAADQQYDYWGQGTQVTVTS”, the “polyreactivity (PSR sort gate)” value was “high polyreactivity”.

For “QVQLVESGGGLVQAGGSLRLSCAASGSTSRYAMGWYRQAPGKERELVAAITRSGGTTYYADSVKGRYTISRDNAKNTVYLQMNSLKPEDTAVYYCATSDRQVKYDYWGQGTQVTVSS”, the “polyreactivity (PSR sort gate)” value was “low polyreactivity”.

With “QVQLVESGGGLVQAGGSLRLSCAASGSIFNAYVMGWYRQAPGKERELVAAISRSGGRTYYADSVKGRFTISRDNAKNTVYLQMNSLKPEDNAVYYCAADYGGPYGQLDYWGQGTQVTVSS” the “polyreactivity (PSR sort gate)” value was “high polyreactivity”.

For “QVQLVESGGGLVQAGGSLRLSCAASGRIFGQNTMGWYRQAPGKERELVAAITWNGGRTYYADSVKGRFTISRDNAKNTVYLQMNSLKPEDTAVYYCAARYSTYPWYNYWGQGTQVTVSS”, the “polyreactivity (PSR sort gate)” value was “high polyreactivity”.

For “QVQLVESGGGLVHAGGSLRLSCAASGYTFSRNAMGWYRQAPGKERELVAAITGSGGSTYYADSVKGRFTISRDNAKNTVYLQMNSLKPEDTAVYYCATEVKRGYVGFDYWGQGTQVTVSS”, the “polyreactivity (PSR sort gate)” value was “low polyreactivity”.

In the case of “QVLLQESGGGLVQAGGSLRLSCAASGSIFLFYTMGWSRQAPVKEREFVAGITLGTTTYNADSVKGRFTISRDNVKNTVYLQMNSLKPEDTAVYYCAVAVGHYTEFWYWGQGTQVTMSS”, the “polyreactivity (PSR sort gate)” value was “high polyreactivity”.

In the case of “QVQLVESGGGLVQAGGSLRLSCAASGLTFYGNAMGWYRQAPGKERELVAAISSSGGTTYYADSVKGRFTISRDNEKNTVYLQMNSLKPEDTAVYYCNTRNTYFYAGYDYWGQGTQVTVSS”, the “polyreactivity (PSR sort gate)” value was “low polyreactivity”.

With “QVQLVESGGGLVQAGGSLRLSCAASGRTFWVYAMGWYRQAPGKERELVASIRRGGSTYYADSVKGRFTISRDNAKNTVYLQMNSLKPEDTAVYYCAAERPYKTFGYGYWGQGTQVTVSS” the “polyreactivity (PSR sort gate)” value was “high polyreactivity”.

In the case of “QVHLVESGGGLVQAGGSLRLSCAASGFTFVRYAMGWYRQAPGKERELVASISYSGGSTYYADSVKGRFTISRDNAKNTVYLQMNSLKPEDTAVYYCAALHRINTLLLPMDYWGQGTQVTVSS”, the “polyreactivity (PSR sort gate)” value was “high polyreactivity”.

For “QVQLVESGGGLVQAGGSLRLSCAASGRIFYPYVMGWYRQAPGKERELVAAITGGGSTYYADSVKGRFTISRDNAKNTVYLQMNSLKPEDTAVYYCAKRSYGDRDERYDSWGQGTQVTVSS”, the “polyreactivity (PSR sort gate)” value was “low polyreactivity”.

In the case of “QVQHVESGGGLVQAGCSLRLSCAASGRTFSSNAMGWYRQAHGKVRELVAVISSGGSTYYADSVKGRFTISRDNAKNTVYLEMYSMKPEDTAVYICAAAVGPSGYYYESDYWGQGTQETVSS”, the “polyreactivity (PSR sort gate)” value was “high polyreactivity”.

With “QVQLVESGGGLVQAGGSLRLSCAASGTIFIVNAMGWYRQAPGKERELVAAITQGDGSTYYADSVKGRFTISRDNAKNTVYLQMNSLKPEDTAVYYCAVGDLVAYTWQEYNYWGQGTQVNVSS” the “polyreactivity (PSR sort gate)” value was “low polyreactivity”.

For “QVQLVESGGGLVQAGGSLRLSCAASGNTLDAYAMGWYRQAPGKERELVAAITSGGSTYYADSVKGRFTISRDNAKNTVYLQMNSLKPEDTAVYYCNADGHPSDPGYDYWGQGTQVTVSS”, the “polyreactivity (PSR sort gate)” value was “low polyreactivity”.

In the case of “QVQLEESGGGLVQAGGSLRLSCAASGRTFTPNAMGSSRQAPGKERELVASIRRGTSTYYADSVKGRFTISRDNAKITVYLQMNSLKPEDTAVYYCAARPFVPRVGTYSYYWGQGTQVTVSS”, the “polyreactivity (PSR sort gate)” value was “high polyreactivity”.

With “QVQLVESGGGLVQAGGSLRLSCAASGRIYNYYAMGWYIPAPGKERELVAAISSSGGRTYYADSVKGRFTISRDNAKNTVYLQMNSLKPEDTAVYYCAAYDSLRYSTYDYWGQGTQVTVSS” the “polyreactivity (PSR sort gate)” value was “high polyreactivity”.

For “QVQLVESGGGLVQAGGSLRLSCAASGRISRVYVMGWYRQAPGKERELVAAISFRGGSTFYADSVKGRFTISRDNAKNTVYLQMNSLKPEDTAVYYCAATVYPLAYDYWGQGTQVTVSS”, the “polyreactivity (PSR sort gate)” value was “high polyreactivity”.

In the case of “QVQLVESGGGLVQAGGSLRLSCAASGLIFAYYTMGWYRQAPGKERELVAAITSGVRTYYADSVKGRFTISRDNAKNTVYLQMNSLKPEDTAVYYCAAGLSGSTQATIFWGYYYWGQGTQVTVSS”, the “polyreactivity (PSR sort gate)” value was “low polyreactivity”.

With “QVQLVESGGGLVQAGGSLRLSCAASGSIFSLYAMGWYRQAPGKERELVAAISSSGTSTYYADSVKGRFTISRDNAKNTVYLQMNSLKPEDTAVYYCNAYREFDWGQGTQVTVSS” the “polyreactivity (PSR sort gate)” value was “high polyreactivity”.

For “QVQLVESGGGLVQAGGSLRLSCAASGITSGNNALGWYRQAPGKERELVAALSWTGGSTYYADSVKGRFTISRDNAKNTVYLQMNSLKPEDTAVYYCAAKGLRYRDIDYDYWGQGTQVTVSS”, the “polyreactivity (PSR sort gate)” value was “low polyreactivity”.

With “QVPLVESGGGLVQAGGSLRLSCAASGSTLGRYAMGWYRQAPGKERELVASITWSDDSTYYADSEKGRFTISRDNAKNTVYLQMNSLKPEDTAVYYCAAAGNLYTYRFYYWGQGTQVTLSS” the “polyreactivity (PSR sort gate)” value was “low polyreactivity”.

For “QVQLVESGGGLVQAGGSLRLSCAASGLTFYYNAMGWYRQAPGKERELVAAISRSGGSTYYADSVKGRFTISRDNAKNTVYLQMNSLEPEDTAVYYCAAALRKEYDYWGQGTQVTVSS”, the “polyreactivity (PSR sort gate)” value was “high polyreactivity”.

With “QVQLVESGGGLVQARGSLRLSCAASGRIFGNNAKGWYRQAPGKARELVAAIRRGGSTYYADSVKGRFTISRDNAKITVYLQMNSLKPEETAVYYCAADSSRKHFYWGQGTQVTVSS” the “polyreactivity (PSR sort gate)” value was “high polyreactivity”.

For “QVHLQESGGGLVQAGGSLRLSCAASGYITLAQTIGWYRQAPGQEREFVASIALGSSTYYTDSVKGSFTISRDNAKTTVYLQMNSLKPEDTAVYYCAARVGSSYAHDYWGQGTQVTVSS”, the “polyreactivity (PSR sort gate)” value was “low polyreactivity”.

With “QVQLVESGGGLVQAGGSLRLSCAASGSIFLYYAMGWYRQAPGKERELVATITKGGGSTYYADSVKGRFTISRDNAKNTVYLQMNSLKPEDTAVYYCAADAAHSEYDYWGQGTLVTVSS” the “polyreactivity (PSR sort gate)” value was “high polyreactivity”.

For “QVQLVESGGGLVQAGGSLRLSCAASGSIFGLNAMGWYRQAPGKERELVARISTGSSTNYADSVKGRFTISRDNAKNTVYLQMNSLKPEDTAVYYCAADVDGGRHYGYWGQGTQVTVSS”, the “polyreactivity (PSR sort gate)” value was “low polyreactivity”.

With “QVQLVESGGGLVQAGGSLRLSCAASGSIFTPYVMGWYRQAPGKEREFVAAITQRGGRTYYADSVKGRFTISRDNAKNTVYLQMNSLKPEDTAVYYCAKTSVSRTYHRSAYDYWGQGTQVTVSS” the “polyreactivity (PSR sort gate)” value was “high polyreactivity”.

In the case of “QVQLQESGGGLVQAGGSLRLSCAASGTISVHASMGWYRQAPGKERELVAGITDGANTYYADSVKGRFTISRDNSKNTVYLQMNSLIPEDTAVYYCAAYYGTEVHFTYWGQGTQVTVSS”, the “polyreactivity (PSR sort gate)” value was “low polyreactivity”.

With “QVQLVESGGGLVQAGGSLRLSCAASGRTFDTYAMGWYRQAPGKERELVAAISTTGRTYYADSVKGRFTISRDNAKNTVYLQMNSLKPEDTALYYCATDPTRSPTSDWGYYYWGQGTQVTVSS” the “polyreactivity (PSR sort gate)” value was “low polyreactivity”.

With “QVQLVESGGGLVQAGRTLRLSCAASGRTFVPYAMGWYRPAPGKERELVAAISYSGDSTYYADSVKGRFTISRDNAKNTVYLQMNRLKPEDTAVYYCAARGGYPFYYWGQGTQVTVSS” the “polyreactivity (PSR sort gate)” value was “low polyreactivity”.

With “QVEIVESGGGLVQAGGSLRLSCAASGSIFRWNAMGWYRQAPGKERELVAAISKRGTNTYYADSVKCRFTISRDNAKNTVYLQMNSLKPEDTAVYYCNAQGHRQNGLGDYWGQGTQVTVSS” the “polyreactivity (PSR sort gate)” value was “high polyreactivity”.

In the case of “QVQHVESGGGLVQAGGSLRLSCAASGIIFPYNAMGWYRQAPGKERELVAAITGGGSTYYADSVKGRFTISRDNAKNTVYLQMNSLKPEDTAVYYCAADRSGPGYDYWGQGTQVTVSS”, the “polyreactivity (PSR sort gate)” value was “low polyreactivity”.

With “QVQLVESGGRLVQAGGSLRLSCAPSGFTFYRYAMGWYRQAPGKEREFVAAITWSGGSTYYADSVKGRFTISRDNSKNTVYLQMNSLKPEDTAVYYCAAYVGFDGTREYDYWGQGTQVTVSS” the “polyreactivity (PSR sort gate)” value was “high polyreactivity”.

For “QVQLVESVGGLVQAGRSLRLSCAASGSIFLRNAMGWYRQPPGKERELVASITWNGASTSYADSVKGRFTISRDNAKNTVYLQMNSLKPEDTAVYYCAAVTVQDSNLKYGYWGQGTQVTVSS”, the “polyreactivity (PSR sort gate)” value was “low polyreactivity”.

With “QVLLVESGGGLVQAGGSLRLSGAASGRTFRRNAIGWYRQAPGKERELVAAISASGGSTYYADSVKGRFTISRDNAMNTVYLEMNSLKPEDTADYYCAAVSQTTYWGQGTQVTVSS” the “polyreactivity (PSR sort gate)” value was “high polyreactivity”.

With “QVQLVESGGGLVQAGGSLRLSCAASGIIFYGNVMGWYRQAPGKERELVAGINSSGASTYYADSVKGRFTISRDNAKNTVYLQMNSLKPEDTAVYYCAARGPRVRLNSYYAGRYDYWGQGTQVTVSS” the “polyreactivity (PSR sort gate)” value was “low polyreactivity”.

With “QVQLVESGGGLVQAGGSLRLSCAASGSIFNLYAMGWYRQAPGKERELVAGIRWSGGRTYYADSVKGRFTISRDNAKYTVYLQMNSLKPEDTAVYYCAAEYRSWRYTGYSYYYWGQGTQVTVSS” the “polyreactivity (PSR sort gate)” value was “high polyreactivity”.
